These results are taken from the supplement of paper PMC9170038.

Data set [1] has as its system MS2 coat protein. In words: apparent KD of MS2 coat protein, switch OFF state (with FMN for OFF switches, without FMN for ON switches); designed switch direction (-1 OFF switch, 1 ON switch): -1; higher = weaker reporter binding. To be noted: FMN input: 0 or 200 uM; Eterna round: R93 (includes R88 designs). Summed up:
(§1)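 Designed RNA switches were transcribed on-chip from Illumina sequencing clusters and titrated with SNAP-549-labelled MS2 coat protein in twofold steps from 0.7 or 1.5 nM up to 3 µM. Each step lasted 0.8–1.5 h at first and 10–20 min by the end, in 100 mM Tris-HCl pH 7.5, 80 mM KCl and 4 mM MgCl2, without or with constant ligand. Apparent KD is the median, for each design, of fits to normalised cluster binding curves.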

Data set [2] deals with MS2 coat protein. Kind of data set: apparent KD of MS2 coat protein, switch ON state; designed switch direction (-1 OFF switch, 1 ON switch): -1; higher = weaker reporter binding. To be noted: FMN input: 0 or 200 uM; Eterna round: R93 (includes R88 designs). Summed up: as §1
Data set [3] has as its system MS2 coat protein. Kind of data set: apparent KD of MS2 coat protein; designed switch direction (-1 OFF switch, 1 ON switch): 1; higher = weaker reporter binding. Summed up: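 Each step of the titration lasted 0.8–1.5 h at the lowest concentration and 10–20 min at the highest. The protein, SNAP-549-labelled MS2 coat protein, went from 0.7 or 1.5 nM doubling to 3 µM over RNA switches transcribed on Illumina chips by stalled E. coli RNA polymerase. Normalised cluster fluorescence was curve-fitted, and the per-design median over clusters is given as apparent KD.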

The mark [4] stands for this setting: input ligand: microRNA oligo, concentration not stated.
[5] abbreviates: Eterna round: R95, input ligand: microRNA oligo, concentration not stated.

As to “AAAAAAAAAGGAUAUACAGGAGGUAAGGUCGGACAAAAAAAACAUGAGGAUCACCCAUGUAGAAGGUUUAAAAA [Excls2-IX]”, the “apparent KD of MS2 coat protein” value worked out at 19.8 nM in the data set on MS2 coat protein [1] and 34.5 nM in the data set on MS2 coat protein [2].
For “AAAAAACAUGAGGAUCACCCAUGUAAGGAUAUACAAAACCCAUAUAAAAAGGGAAAAAGUAGAAGGUGCAAAAA [wbt round 1 mod 7]”, the “apparent KD of MS2 coat protein” value in the data set with MS2 coat protein [1] turned out to be 23.1 nM; in the data set on MS2 coat protein [2], 22.5 nM.
For “AAAAAACAUGAGGAUCACCCAUGUAAGGAUAUCAGAGAAUUAAAAAAAAAAAAAAAAAUGAGAAGGUACAAAAA [excaliber]”, in that order: 19 nM and 31.7 nM.
For “AAAAAACAUGAGGAUCACCCAUGUAAGGAUAUGCAAAACCCAUAUAAAAAGGGAAAAAGCAGAAGGUGCAAAAA [wbt round 1 mod 5]”, in that order: 33.2 nM and 23.7 nM.
For “AAAAAACAUGAGGAUCACCCAUGUAAGGAUAUGCAAAAGAAAAGAAAAGAAAGAAGAAGCAGAAGGUACAAGAA [Userkaf]”, in that order: 31.2 nM and 35 nM.
Turning to “AAAAAACAUGAGGAUCACCCAUGUAAGGAUAUGCUAUGGAAAAUAAAAAUAAAACAUAGCAGAAGGUACACCAA [Amethyst 81]”, the entries for the “apparent KD of MS2 coat protein” value in the data set with MS2 coat protein [1] and in the data set with MS2 coat protein [2] were 27.3 nM and 18.9 nM, respectively.
Consider “AAAAAACAUGAGGAUCACCCAUGUAAGGAUAUGCUCGUCAGUGCGAAAGCACAGAUGAGCAGAAGGUACAAAAA [66%, Wbt, 43]”, for which the “apparent KD of MS2 coat protein” value in the data set on MS2 coat protein [1] was found to be 39 nM; in the data set with MS2 coat protein [2], 24.8 nM.
For “AAAAAACAUGAGGAUCACCCAUGUAAGGAUAUGUGAAAAAAAAAAUAAAAAAAAAAAAACAGAAGGUACAAAAA [LROPPY Exclusion 1 - v02_deltaG=3.34]”, in that order: 47.7 nM and 45.2 nM.
For “AAAAAACAUGAGGAUCACCCAUGUCAGGAUAUACAAAAUAAAAUAAAAAUAAAAUAAAGUAGAAGGGACAAAAA [May 8]”, in that order: 25.4 nM and 28.5 nM.
For “AAAAAACAUGAGGAUCACCCAUGUCAGGAUAUGCUAUGGAAAUAAAAAAUAAAACAUAGCAGAAGGGACACCAA [Mat - Exclusion 1 - Eli mod - D48]”, in that order: 55 nM and 31 nM.
Turning to “AAAAAACAUGAGGAUCACCCAUGUCAGGAUAUGCUCAGCAAUAUUAAAAUAAAGAACGGUAGAAGGGACAGAAA [Bilbo Confounded 23 - Jieux - Exclusion 1]”, the “apparent KD of MS2 coat protein” value was 34.7 nM in the data set with MS2 coat protein [1] and 35.8 nM in the data set with MS2 coat protein [2].
The corresponding values for “AAAAAACAUGAGGAUCACCCAUGUCAGGAUAUUCGAAAAAAAAAAAAAAAAAAAAAAAGGAGAAGGGACGAAAA [DR Excl. 1]” are 56.8 nM and 43.4 nM.
For “AAAAAACAUGAGGAUCACCCAUGUGAGGAUAUCCAGAAUGGAAUAAAAUAACAAGAAAGGAGAAGGCACAAAAA [Ex 1 May 37]”, in that order: 42.1 nM and 67.7 nM.
As for “AAAAAACAUGAGGAUCACCCAUGUGAGGAUAUCGGAAAAGGAAAAAAAAAAAAGAAGACGAGAAGGCACACCAA”, the entries for the “apparent KD of MS2 coat protein” value in the data set on MS2 coat protein [1] and in the data set on MS2 coat protein [2] were 25.1 nM and 28.6 nM, respectively.
Consider “AAAAAACAUGAGGAUCACCCAUGUGAGGAUAUCGGUAGUGAGGCCAUAGUGUCAGUAAUGAGAAGGCACAUAAA [Brourd 613 Mod 10 - Jieux - Exclusion 1]”, for which the results for the “apparent KD of MS2 coat protein” value with MS2 coat protein [1] and in the data set with MS2 coat protein [2] were 22.7 nM and 25.4 nM, respectively.
On to “AAAAAACAUGAGGAUCACCCAUGUGAGGAUAUGAUGCGAAUAAAGAAAGAAGAAAGCAUCAGAAGGCACACCUA [Disincluded 3 (MS2 Riboswitches)]”, for which the entries for the “apparent KD of MS2 coat protein” value with MS2 coat protein [1] and with MS2 coat protein [2] were 59.9 nM and 26.3 nM, respectively.
The corresponding values for “AAAAAACAUGAGGAUCACCCAUGUGAGGAUAUGCAAAACCCAAAUAAAAAGAGAAAAAGCAGAAGGCACAAAAA [wbt round 1 mod 2]” are 30.3 nM and 23.5 nM.
On to “AAAAAACAUGAGGAUCACCCAUGUGAGGAUAUGCGAAAUAAAAAUAAAAUAAUAAAAAGCAGAAGGCACAAAAA [Amethyst 64]”, for which the “apparent KD of MS2 coat protein” value in the data set with MS2 coat protein [1] was 40.6 nM; in the data set on MS2 coat protein [2], 30.1 nM.
As to “AAAAAACAUGAGGAUCACCCAUGUGAGGAUAUGCUAUGGAAAAUAAAAAUAAAACAUAGCAGAAGGCACACCAA [Denovo 16]”, the “apparent KD of MS2 coat protein” value in the data set with MS2 coat protein [1] turned out to be 37.4 nM; in the data set on MS2 coat protein [2], 31.4 nM.
For “AAAAAACAUGAGGAUCACCCAUGUUAGGAUAUCCUGCAGAAAAAAAAAAAAAACUGCAGGAGAAGGAGCAAGGA [Banishment 3 - Jieux - Exclusion 1]”, in that order: 44.5 nM and 25.8 nM.
For “AAAAAAGGAGGAUAUACGUACAUGUCAAAAGACGUGAAGGGACAUGAGGAUCACCCAUGUAGAAGGCUUAAAAA [JL Stem Breaker 6]”, in that order: 18.1 nM and 47.7 nM.
As to “AAAAAGAGAGGAUAUACAUGAGGAUCACCCAUGUGAAAGACGAAAAAAAGUCUAAAAUGUAGAAGGCUCAAAAA [65%, Moding Exclusion3-cac2, 13]”, the results for the “apparent KD of MS2 coat protein” value with MS2 coat protein [1] and in the data set with MS2 coat protein [2] were 89.7 nM and 23.1 nM, respectively.
Turning to “UUCCCAUCGGGAGGAUAUGGAACCUUAUUGGUUCUAGAAGGUCCAACAUGAGGAUCACCCAUGUGGGAGUGGUCUAAUGACCUC [SS NG10LRO03] (Eterna round: R96, puzzle: Same State NG 1)”, the “apparent KD of MS2 coat protein” value in the data set on MS2 coat protein [3] (input ligand: FMN 200 uM) is 264 nM; in the data set with MS2 coat protein [3] (setting [4]) it was 288 nM; with MS2 coat protein [3] (input ligand: none) it was 333 nM.
The corresponding values for “UUGAAGAAUUAAGGAUAUCGAGUCAAGAUGUAAAACAUGAGGAUCACCCAUGUGGGUUGCGGUAUCGAGAAGGUAAAUUACAAG [Mat - Same State NG 2 - JL mod - D52] (Eterna round: R96, puzzle: Same State NG 2)” are 24.1 nM, 16.9 nM and 35.4 nM.
Turning to “UUGAAGAAUUAAGGAUAUUGAAUACAUAUGUUAAACAUGAGGAUCACCCAUGUGGGUUGCGGUAUCGAGAAGGUAAAUUACUAG [Mat - same State NG 2 - JL mod - D80] (Eterna round: R96, puzzle: Same State NG 2)”, in the data set on MS2 coat protein [3] (setting [4]), the “apparent KD of MS2 coat protein” value turned out to be 60.1 nM.
Consider “UUGAUGAACUGAGGAUAUCGAGUCGUCUGUUUUUACAUGAGGAUCACCCAUGUGGGUUGUGGUAUCGAGAAGGCAGAUUACUUA [JR_SSNG2_Sub031] (Eterna round: R96, puzzle: Same State NG 2)”, for which the “apparent KD of MS2 coat protein” value was 1670 nM in the data set with MS2 coat protein [3] (input ligand: FMN 200 uM), 974 nM with MS2 coat protein [3] (setting [4]) and 2150 nM with MS2 coat protein [3] (input ligand: none).
Consider “UUGCAGUCAGGUGAGGAUAUCAUGAAUUAAACAUGAGGAUCACCCAUGUGCUGCCUUGCAGCAUAUGAGAAGGCACCUGGCUGCU [JL-ss2-3.01 Brourd Mod] (puzzle: Same State 2)”, for which the “apparent KD of MS2 coat protein” value stood at 65.2 nM with MS2 coat protein [3] (Eterna round: R95, input ligand: FMN 200 uM); 185 nM in the data set on MS2 coat protein [3] (setting [5]); 640 nM in the data set on MS2 coat protein [3] (Eterna round: R95, input ligand: none).
Consider “UUGCAGUGCGGGUAGGAUAUGUAGGGUGGUACAUGAGGAUCACCCAUGUAUCCACCCUUCGACCGGCAGAAGGGCCUGUCACCGC [Lexeis] (Eterna round: R96, puzzle: Same State 2)”, for which the “apparent KD of MS2 coat protein” value was determined as 23.1 nM in the data set with MS2 coat protein [3] (input ligand: FMN 200 uM), 11.2 nM in the data set on MS2 coat protein [3] (setting [4]) and 17.4 nM with MS2 coat protein [3] (input ligand: none).
For “UUGCUCGUGUGAGGAUAUGCAGCCGUUUCGGCUGCAGAAGGUACUAUAAUACAUGAGGAUCACCCAUGUCUCUAUUGUUUAGUG [salish99_SSNG1_r04_927] (Eterna round: R96, puzzle: Same State NG 1)”, in that order: 25.7 nM, 19.6 nM and 26.7 nM.
With “UUGUUUAGAAAUUAACAUGAGGAUCACCCAUGUAUUGGAUCAGAGGAUAUGCAUGUUUGAUUGUAGCAGAAGGCUGAUUGUUGA [JR_SSNG3_Sub029] (Eterna round: R96, puzzle: Same State NG 3)”, in the data set with MS2 coat protein [3] (setting [4]), the “apparent KD of MS2 coat protein” value amounted to 37.3 nM.
Take “UUUAGAUCGCGAGGAUAUCGCGAGGAUCACCCGUGAGAAGGCGCAGAGCCGAGGAUCACCCGGCUGAUCCUGAGGAGGAGGUCU (Eterna round: R96, puzzle: Same State NG 1)”: the entries for the “apparent KD of MS2 coat protein” value with MS2 coat protein [3] (input ligand: FMN 200 uM), in the data set with MS2 coat protein [3] (setting [4]) and with MS2 coat protein [3] (input ligand: none) were 106 nM, 184 nM and 269 nM, respectively.
Consider “UUUGCAUGACGAGGAUAUCAUUUAUUUCAUGUUUGAGAAGGCGUUUUUUUUAUUACCUUACAUGAGGAUCACCCAUGUGUCUGU [JR_SSNG1_Sub044] (Eterna round: R96, puzzle: Same State NG 1)”, for which the “apparent KD of MS2 coat protein” value in the data set with MS2 coat protein [3] (input ligand: FMN 200 uM) came to 32.2 nM; with MS2 coat protein [3] (setting [4]), 39.6 nM; with MS2 coat protein [3] (input ligand: none) it was 48.5 nM.
As to “UUUGGGUGGCUGGAGGAUAUCCUGGUUGUUACAUGAGGAUCACCCAUGUGCCGCGCGGUGCGCUGGGAGAAGGCUGGCGGCCGUU (puzzle: Same State 2)”, the “apparent KD of MS2 coat protein” value in the data set on MS2 coat protein [3] (setting [5]) came out at 71.8 nM.
